Source: publication PMC7463755, “C7-Prenylation of Tryptophan-Containing Cyclic Dipeptides by 7-Dimethylallyl Tryptophan Synthase Significantly Increases the Anticancer and Antimicrobial Activities” (Molecules, 2020)

How the values were obtained:
Test in all cases: HPLC product formation, Michaelis-Menten
Assay type in all cases: biochemical, Aspergillus fumigatus
[1] = substrate: O=C1CNC(=O)[C@H](Cc2c[nH]c3ccccc23)N1; settings: 2 mM DMAPP, 5 mM CaCl2, 37 °C, prenyl acceptor
Excerpt: (§1) HPLC product formation, Michaelis-Menten on 7-DMATS (7-dimethylallyl tryptophan synthase)

[2] = substrate: CC(C)=CCOP(=O)(O)OP(=O)(O)O; settings: 1 mM 1a (cyclo-L-Trp-Gly), 5 mM CaCl2, 37 °C, prenyl donor
Excerpt: as §1

[3] = substrate: [H][C@@]12CCCN1C(=O)[C@H](Cc1c[nH]c3ccccc13)NC2=O; settings: 2 mM DMAPP, 5 mM CaCl2, 37 °C, prenyl acceptor
Excerpt: as §1

[4] = substrate: O=C1N[C@@H](Cc2c[nH]c3ccccc23)C(=O)N[C@H]1Cc1ccc(O)cc1; settings: 2 mM DMAPP, 5 mM CaCl2, 37 °C, prenyl acceptor
Excerpt: as §1

[5] = substrate: O=C1N[C@@H](Cc2c[nH]c3ccccc23)C(=O)N[C@H]1Cc1ccccc1; settings: 2 mM DMAPP, 5 mM CaCl2, 37 °C, prenyl acceptor
Excerpt: as §1

[6] = substrate: CC(C)C[C@@H]1NC(=O)[C@H](Cc2c[nH]c3ccccc23)NC1=O; settings: 2 mM DMAPP, 5 mM CaCl2, 37 °C, prenyl acceptor
Excerpt: as §1

[7] = substrate: O=C1N[C@@H](Cc2c[nH]c3ccccc23)C(=O)N[C@H]1Cc1c[nH]c2ccccc12; settings: 2 mM DMAPP, 5 mM CaCl2, 37 °C, prenyl acceptor
Excerpt: as §1

[8] = substrate: C[C@@H]1NC(=O)[C@H](Cc2c[nH]c3ccccc23)NC1=O; settings: 2 mM DMAPP, 5 mM CaCl2, 37 °C, prenyl acceptor
Excerpt: as §1

B1: 7-DMATS (7-dimethylallyl tryptophan synthase) (Aspergillus fumigatus Af293) (protein)
chain: MSIGAEIDSLVPAPPGLNGTAAGYPAKTQKELSNGDFDAHDGLSLAQLTPYDVLTAALPLPAPASSTGFWWRETGPVMSKLLAKANYPLYTHYKYLMLYHTHILPLLGPRPPLENSTHPSPSNAPWRSFLTDDFTPLEPSWNVNGNSEAQSTIRLGIEPIGFEAGAAADPFNQAAVTQFMHSYEATEVGATLTLFEHFRNDMFVGPETYAALRAKIPEGEHTTQSFLAFDLDAGRVTTKAYFFPILMSLKTGQSTTKVVSDSILHLALKSEVWGVQTIAAMSVMEAWIGSYGGAAKTEMISVDCVNEADSRIKIYVRMPHTSLRKVKEAYCLGGRLTDENTKEGLKLLDELWRTVFGIDDEDAELPQNSHRTAGTIFNFELRPGKWFPEPKVYLPVRHYCESDMQIASRLQTFFGRLGWHNMEKDYCKHLEDLFPHHPLSSSTGTHTFLSFSYKKQKGVYMTMYYNLRVYST
notes: recombinant, overproduced in E. coli and purified as in Kremer et al; vector pQE60 named
[1]
  Km: 169.7 µM
  Vmax: 0.145 µM/min
  kcat: 0.131 s⁻¹
  kcat/Km: 770 M⁻¹ s⁻¹
[2]
  Km: 79.6 µM
  Vmax: 0.072 µM/min
  kcat: 0.0693 s⁻¹
  kcat/Km: 871 M⁻¹ s⁻¹
[3]
  Km: 880.1 µM
  Vmax: 0.0228 µM/min
  kcat: 0.0205 s⁻¹
  kcat/Km: 23.3 M⁻¹ s⁻¹
[4]
  Km: 562.4 µM
  Vmax: 0.0515 µM/min
  kcat: 0.0464 s⁻¹
  kcat/Km: 82.4 M⁻¹ s⁻¹
[5]
  Km: 102.9 µM
  Vmax: 0.0359 µM/min
  kcat: 0.0323 s⁻¹
  kcat/Km: 314 M⁻¹ s⁻¹
[6]
  Km: 823.2 µM
  Vmax: 0.0654 µM/min
  kcat: 0.0586 s⁻¹
  kcat/Km: 71.2 M⁻¹ s⁻¹
[7]
  Km: 225.8 µM
  Vmax: 0.0459 µM/min
  kcat: 0.0413 s⁻¹
  kcat/Km: 183 M⁻¹ s⁻¹
[8]
  Km: 867.8 µM
  Vmax: 0.0141 µM/min
  kcat: 0.0127 s⁻¹
  kcat/Km: 14.6 M⁻¹ s⁻¹
